Measurements reported in US20170020994.

Experiments:
[1] = test system: RA-TALE_ICP4 (ICP4-TALE-VP16) (synthetic construct); assay: cell_activity; conditions: Fluc reporter with ICP4 promoter, 293T
[2] = test system: RA-TALE_ICP0 (ICP0-TALE-VP16) (synthetic construct); assay: cell_activity; conditions: Fluc reporter with ICP0 promoter, 293T

Row | Sequence | activity (fold activation) [1] | activity (fold activation) [2]
1 | GGCAGATGGCGCGGATG (double strand) [ICP4 promoter TALE site] | 60 | –
2 | GGGACGCGCGGCCAT (double strand) [ICP0 promoter TALE site] | – | 20
